Values of other authors in publication PMC8062757.

Biological target: Myostatin (Gallus gallus) (UniProt O42220)
Chain of UniProt O42220 (O42220 267-375): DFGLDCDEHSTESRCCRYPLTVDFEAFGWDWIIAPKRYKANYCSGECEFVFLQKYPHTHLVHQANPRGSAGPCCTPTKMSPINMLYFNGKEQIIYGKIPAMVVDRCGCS

Kd: 0.584 nM
Substance: Follistatin (from UniProt Q90844)
